Measured values from KR20220001106A (dated 2022).

B1: Hz1 (humanized antibody made with SEQ ID NO 28 and SEQ ID NO 29) (antibody, V domains shown)
VH: EVQLVESGGGLVKPGGSLRLSCAASGIDLNRYSLTWVRQAPGKGLEWVGIVGGSGVTYYANWAKGRFTISRDSAKNSLYLQMNSLRAEDTAVYFCARGSDRSAYAPDIWGPGTLVTVSS
VL: DIQMTQSPSSLSASVGDRVTINCQSSQSIYSNNYLAWYQQKPGKPPKLLLYQASKLASGVPSRFSGSGSGTDFTLTISSLQPEDVATYYCLGVYDDDADNAFGGGTELEIKR
notes: Whole IgG from vector pCEP6-WPRE with an Fc part
B2: Hz2 (humanized antibody made with SEQ ID NO 30 and SEQ ID NO 31) (antibody, V domains shown)
VH: EVQLVESGGGLVQPGGSLRLSCAVSGIDLNRYSLTWIRQAPGKGLEWVAIVGGSGVTYYANWAKGRFTISRDDSKNTLYLQMNSLRAEDTAVYYCARGSDRSAYAPDIWGQGTLVTVSS
VL: DIQLTQSPSSLSASVGDRVTITCQSSQSIYSNNYLAWYQQKPGKAPKLLLYQASKLASGVPSRFSGSGSGTDFTLTISSLQPEDFATYYCLGVYDDDADNAFGQGTKVEIKR
notes: as for B1
B3: Hz2-F (antibody with SEQ ID NO 32 and SEQ ID NO 31) (antibody, human IgG1, L234A L235A, V domains shown)
VH: EVQLVESGGGLVQPGGSLRLSCAVSGIDLNRYSLTWIRQAPGKGLEWVAIVGGSGVTYYANWAKGRFTISRDDSKNTLYLQMNSLRAEDTAVYYCARGSDRSAYAPDIWGQGTLVTVSS
VL: DIQLTQSPSSLSASVGDRVTITCQSSQSIYSNNYLAWYQQKPGKAPKLLLYQASKLASGVPSRFSGSGSGTDFTLTISSLQPEDFATYYCLGVYDDDADNAFGQGTKVEIKR
notes: copies: 2 + 2
B4: RIgG1 (rabbit antibody made with SEQ ID NO 24 and SEQ ID NO 25) (antibody, V domains shown)
VH: QSVEESGGRLVTPGTPLTLTCTVSGIDLNRYSLTWVRQAPGKGLEWIGIVGGSGVTYYANWTKGRFTISKTSTTVDLKMTSLTTEDTATYFCARGSDRSAYAPDIWGPGTLVTISS
VL: ELDMTQTPSSVSAAVGGTVTINCQSSQSVYSNNYLAWYQQKPGQPPKLLLYQASKLASGVSSRFSGSGSGTHFTLTISGVQCDDAATYYCLGVYDDDADNAFGGGTELEILR
notes: Converted from scFv to whole IgG in vector pCEP6-WPRE, which carries an Fc part; The ELISA detected it with anti-hIgG-Fc; also called 2-19 (IgG form)
B5: Lu007 (SEQ ID NO 33, SEQ ID NO 34) (antibody, V domains shown)
VH: EVQLVESGGGLVQPGGSLRLSCAASGYDFTHYGMNWIRQAPGKGLEWVGWINTYTGEPTYAADFKRRFTFSLDTSKSTVYLQMNSLRAEDTAVYYCAKYPHYYGTSHWYFDVWGQGTLVTVSS
VL: DIQLTQSPSSLSASVGDRVTITCSASQDISNYLNWYQQKPGKAPKVLIYFTSSLHSGVPSRFSGSGSGTDFTLTISSLQPEDFATYYCQQYSTVPWTFGQGTKVEIKR
notes: Tested as a purified whole antibody, detected with anti-hIgG-Fc; also called variant ranibizumab; variant Lucentis

What follows are binders tested against T1, recombinant human VEGF165 (Sino biological) (human, UniProt P15692-4 27-191) (assay: Octet red96E BLI, VEGF165 amine-coupled on AR2G sensor, antibody as analyte, 30 C).
T1 construct: Sino Biological VEGF165 was used in the Octet assay
T1 sequence (P15692 other isoform, or with tags, fused parts or gaps limits assumed): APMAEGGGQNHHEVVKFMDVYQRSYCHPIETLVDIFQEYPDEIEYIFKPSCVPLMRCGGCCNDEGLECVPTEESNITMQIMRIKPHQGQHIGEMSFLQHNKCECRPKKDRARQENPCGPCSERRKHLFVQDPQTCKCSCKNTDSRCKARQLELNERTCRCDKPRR

Binder | Kd | koff | kon
B1 | 4.71 pM | 3.22e-06 s⁻¹ | 685000 M⁻¹ s⁻¹
B2 | 1.93 pM | 9.73e-07 s⁻¹ | 505000 M⁻¹ s⁻¹
B3 | 3.98 pM | 3.08e-06 s⁻¹ | 775000 M⁻¹ s⁻¹
B4 | 3.98 pM | 3.08e-06 s⁻¹ | 775000 M⁻¹ s⁻¹
B5 | 12.2 pM | 2.89e-06 s⁻¹ | 237000 M⁻¹ s⁻¹
